# *1 amine or outer side, *2 acyl side, *3 side chain or, on linkers, in order; H or OH if unused. Bridges are numbered along the chain shown (N, C = ends). [ ]: non-standard residue; d: D form. The star is where a group is joined. DOTA = O=C(O)CN1CCN(CC(=O)O)CCN(CC(=O)*)CCN(CC(=O)O)CC1; 1Nal = N[C@@H](Cc1cccc2ccccc12)C(=O)O; TBMB = c1c(C[*:1])cc(C[*:3])cc1C[*:2]; Tle = CC(C)(C)[C@H](N)C(=O)O
# B1: I-23 (peptide)
# peptide: {DOTA}-AC[dA]NE[1Nal][dA]CEDFYD[Tle]C-NH2
# modifications: linker 2-8-15 via TBMB
# SMILES: C[C@H](NC(=O)CN1CCN(CC(=O)O)CCN(CC(=O)O)CCN(CC(=O)O)CC1)C(=O)N[C@H]1CSCc2cc3cc(c2)CSC[C@H](NC(=O)[C@@H](C)NC(=O)[C@H](Cc2cccc4ccccc24)NC(=O)[C@H](CCC(=O)O)NC(=O)[C@H](CC(N)=O)NC(=O)[C@@H](C)NC1=O)C(=O)N[C@@H](CCC(=O)O)C(=O)N[C@@H](CC(=O)O)C(=O)N[C@@H](Cc1ccccc1)C(=O)N[C@@H](Cc1ccc(O)cc1)C(=O)N[C@@H](CC(=O)O)C(=O)N[C@@H](C(C)(C)C)C(=O)N[C@H](C(N)=O)CSC3
# Biological target: membrane type 1-matrix metalloproteinase (MT1-MMP), P50281
# Experiment: not stated at the place; fluorescence polarization with MT1-MMP hemopexin domain per Examples 7-8
binder,measurement,value
B1,Kd,0.52 nM

# From patent US12552837
